{"source": "patent US20050164323A1", "about": "“Methods of treating asthma” (Wyeth, priority 2003, published 2005)", "proteins": {"B1": {"name": "PKC-θ KD (Homo sapiens) (protein)", "chain": "MGPELNKERPSLQIKLKIEDFILHKMLGKGSFGKVFLAEFKKTNQFFAIKALKKDVVLMDDDVECTMVEKRVLSLAWEHPFLTHMFCTFQTKENLFFVMEYLNGGDLMYHIQSCHKFDLSRATFYAAEIILGLQFLHSKGIVYRDLKLDNILLDKDGHIKIADFGMCKENMLGDAKTNTFCGTPDYIAPEILLGQKYNHSVDWWSFGVLLYEMLIGQSPFHGQDEEELFHSIRMDNPFYPRWLEKEAKDLLVKLFVREPEKRLGVRGDIRQHPLFREINWEELERKEIDPPFRPKVKSPFDCSNFDKEFLNEKPRLSFADRALINSMDQNMFRNFSFMNPGMERLISHHHHHH", "notes": "PKC-θ KD (amino acid residues 362 to 706) was cloned into a pET16b expression vector; hexa-histidine (C); Met-Gly (non-native N-terminal residues) (N); made in house; host or cells: E. coli BL21-DE3 (pET16b)"}}, "key": {"[1]": {"substrate": "CC(C)C[C@H](NC(=O)[C@H](CO)NC(=O)CNC(=O)[C@H](CCCCN)NC(=O)[C@H](CCCNC(=N)N)NC(=O)[C@H](C)NC(=O)[C@@H](N)Cc1ccccc1)C(=O)N[C@@H](CCCNC(=N)N)C(=O)N[C@@H](CCC(N)=O)C(=O)O", "test": "coupled PK/LDH assay: steady-state kinetics, product and dead-end inhibition of PKC-θ KD", "assay_type": "biochemical, human", "conditions": "other: varied peptide substrate, saturating ATP, pH 7.5"}, "[2]": {"substrate": "Nc1ncnc2c1ncn2[C@@H]1O[C@H](COP(=O)(O)OP(=O)(O)OP(=O)(O)O)[C@@H](O)[C@H]1O", "test": "purified protein, by the assay type", "conditions": "pH 7.5, 25.0 °C"}}, "data": [{"protein": "B1", "values": [{"measurement": "kcat/Km", "setting": "[1]", "result": "2.7e+06", "unit": "M⁻¹ s⁻¹"}, {"measurement": "Km", "setting": "[2]; other: 0 mM NaCl", "result": 25, "unit": "µM"}, {"measurement": "Km", "setting": "[2]; other: initial velocity with peptide 1, 625 mM NaCl", "result": "321 ± 19", "unit": "µM"}, {"measurement": "Km", "setting": "[2]; other: initial velocity, varied ATP vs peptide 3, 100 mM NaCl", "result": "118 ± 17", "unit": "µM"}]}]}
